Experimental data as given in US20030180295A1 (PHILADELPHIA HEALTH AND EDUCATION, published 2003).

Target: T1, Thrombospondin (TSP-1) (UniProt P07996 19-1170, biotinylated in the ligand blot of Example 5)
T1 construct: also called thrombospondin-1; biotinylated TSP-1
Assay: resonant mirror biosensor, peptide alone on immobilized TSP-1

T1 sequence (P07996 19-1170 limits assumed): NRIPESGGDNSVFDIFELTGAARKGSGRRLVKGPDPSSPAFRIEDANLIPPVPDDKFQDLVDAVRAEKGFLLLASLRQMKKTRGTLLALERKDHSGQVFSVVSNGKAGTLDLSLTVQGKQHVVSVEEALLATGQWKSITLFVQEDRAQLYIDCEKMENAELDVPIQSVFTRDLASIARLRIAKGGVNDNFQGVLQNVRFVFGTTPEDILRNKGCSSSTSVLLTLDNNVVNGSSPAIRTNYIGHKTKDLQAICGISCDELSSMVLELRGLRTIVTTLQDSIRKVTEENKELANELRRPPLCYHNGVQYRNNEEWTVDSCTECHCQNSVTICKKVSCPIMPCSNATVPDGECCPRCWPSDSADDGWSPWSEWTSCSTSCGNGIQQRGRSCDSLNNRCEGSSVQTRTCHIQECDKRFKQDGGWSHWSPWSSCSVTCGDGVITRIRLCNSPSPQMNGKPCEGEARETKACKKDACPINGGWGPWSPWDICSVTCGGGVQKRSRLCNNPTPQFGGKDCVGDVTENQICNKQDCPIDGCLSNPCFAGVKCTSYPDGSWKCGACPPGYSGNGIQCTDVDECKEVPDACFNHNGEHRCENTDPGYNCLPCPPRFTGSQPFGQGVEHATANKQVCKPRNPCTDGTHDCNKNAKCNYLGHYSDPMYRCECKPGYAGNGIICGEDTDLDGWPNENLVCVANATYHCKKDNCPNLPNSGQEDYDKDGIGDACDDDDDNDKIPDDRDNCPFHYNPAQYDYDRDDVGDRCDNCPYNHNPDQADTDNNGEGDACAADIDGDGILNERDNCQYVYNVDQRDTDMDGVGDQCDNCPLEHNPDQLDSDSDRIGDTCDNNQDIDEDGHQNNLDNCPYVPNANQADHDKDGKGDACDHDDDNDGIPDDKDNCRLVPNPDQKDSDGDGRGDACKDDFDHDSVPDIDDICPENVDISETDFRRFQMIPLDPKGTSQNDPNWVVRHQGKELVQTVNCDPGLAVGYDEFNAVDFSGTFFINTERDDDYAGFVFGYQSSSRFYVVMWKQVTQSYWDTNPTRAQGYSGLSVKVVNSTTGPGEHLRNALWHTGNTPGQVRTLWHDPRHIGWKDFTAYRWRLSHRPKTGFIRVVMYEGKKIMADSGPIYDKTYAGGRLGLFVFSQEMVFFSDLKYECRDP

B1: Pro-His-Ser-Arg-Asn (SEQ ID NO: 10) (peptide)
peptide: PHSRN
notes: also called random negative control peptide; control peptide
binding result: no binding
